What was measured:
[1] = Particle loading / insulin encapsulation efficiency by bicinchoninic acid assay (BCA); assay type: physicochemical; conditions: insulin concentration of the dosed preparation
Protocol: Next, the mixture of re-hydrated particles containing the active biomolecule was purified and separated from the free active biomolecule not loaded in the particles by a dialysis step overnight. The dialysis was performed in a 100 kD dialysis membrane in the buffer used for the formulation process as discussed above, at a buffer volume at least 2000× the volume of the solution to be purified (e.g., 0.1M sodium bicarbonate, pH 8.2, buffer). The dialysate was concentrated in centrifugal unit to the preferred concentration. Alternatively, the purification and separation step could be performed with tangential flow filtration (TFF). The described purification steps are optional and were not performed for all formulations. Particle morphological characteristics were analyzed with dynamic light scattering methods. Particle loading efficiency was quantified with a bicinchoninic acid assay (BCA).
The insulin encapsulation efficiency of the complex lipid formulations (the amount of insulin that was trapped to the vesicles) was also characterized, and the results ranged consistently from 25-35%. Similar characterizations were measured for other formulations of complex lipid particles.

[2] = design: species or system mice; conditions: mouse, in vivo
Protocol: The animals used were C57BL6 female 8-week-old mice (Jax #0664). […] Mice were weighed, and a pre-bleed sample was taken (through tail vein, retro-orbital or submandibular means). The mice were fasted overnight before being dosed via intracolonic administration with 50 uL of a given insulin-loaded complex lipid formulation (Table 8). Non-terminal bleeds at 30 minutes and 60 minutes post-dose were taken, alternating routes of collection. A terminal bleed at 120 minutes post-dose via cardiac puncture was also taken. Whole blood samples from the pre-bleed, 30 minute, 60 minute, and 120 minute bleeds were processed for plasma then stored at −80° C. Insulin levels were quantified by MSD assay. Exposure to the active biomolecule (e.g. insulin) was measured as area under the curve (AUC) of the four measured timepoints, and dose was measured as BCA*dose volume (0.05 mL). Therefore, the data in Table 9 for each mouse is shown as systemic levels of insulin (or exposure normalized by dose). […] Unexpectedly, 20 of 22 (>90%) different complex lipid formulations out-performed free IC insulin.

What does the source list for “Control: free insulin given by intracolonic (IC) administration, not encapsulated”?
BCA (Insulin mg/mL) [1]: Avg = 1.16 mg/mL; Systemic levels of insulin (exposure AUC normalized by dose), Avg [2]: Avg = 290.1

Reference: patent US20250295587A1, “COMPLEX LIPID NANOPARTICLES ENCAPSULATING POLYPEPTIDES AND USES THEREOF” (SAIL BIOMEDICINES, INC., priority 2022, published 2025)
